Patent US20090048324
Residue numbers refer to the chain shown, from its start. Numbers in names are those of the source.

B1: human PBGS variant F12L (protein)
chain: MQPQSVLHSGYLHPLLRAWQTATTTLNASNLIYPIFVTDVPDDIQPITSLPGVARYGVNRLEEMLRPLVEEGLRCVLIFGVPSRVPKDERGSAADSEESPAIEAIHLLRKTFPNLLVACDVCLCPYTSHGHCGLLSENGAFRAEESRQRLAEVALAYAKAGAQVVAPSDMMDGRVEAIKEALMAHGLGNRVSVMSYSAKFASCFYGPFRDAAKSSPAFGDRRCYQLPPGARGLALRAVDRDVREGADMLMVKPGMPYLDIVREVKDKHPDLPLAVYHVSGEFAMLWHGAQAGAFDLKAAVLEAMTAFRRAGADIIITYYTPQLLQWLKEE
B2: pea (Pisum sativum) porphobilinogen synthase (protein)
chain: SLPIQRRPRRNRRSPALRSAFQETTLSPANFVYPLFIHEGEEDTPIGAMPGCYRLGWRHGLLEEVAKARDVGVNSVVLFPKIPDALKTPTGDEAYNEDGLVPRSIRLLKDKYPDLIIYTDVALDPYSSDGHDGIVREDGVIMNDETVHQLCKQAVAQARAGADVVSPSDMMDGRVGAMRVALDAEGFQHVSIMSYTAKYASSFYGPFREALDSNPRFGDKKTYQMNPANYREALTEMREDESEGADILLVKPGLPYLDIIRLLRDNSPLPIAAYQVSGEYSMIKAGGALKMIDEEKVMMESLLCLRRAGADIILTYFALQAARTLCGEKR

Legend:
[1] = target: T1, wild type human porphobilinogen synthase (PBGS), parent construct N59/C162A
T1 chain: B1 chain with L12F

Row | Protein | specific activity over time after addition of ALA (filled triangles, Pool I) [1] | specific activity over time after addition of ALA (filled triangles, Pool II) [1] | K(0.5) of the protein concentration dependent specific activity (P30124) | K(0.5) of the protein concentration dependent specific activity in the presence of 5 µM morphlock-1 (P30124) | protein concentration giving half maximal specific activity (P30124) | protein concentration giving half maximal specific activity after 30 minutes with 30 µM rosmarinic acid (P30124) | specific activity as a function of pea PBGS concentration, DMSO control (filled circles) (P30124) | specific activity as a function of pea PBGS concentration, with morphlock-1 (open circles) (P30124) | specific activity as a function of pea PBGS subunit concentration (P30124)
1 | B1 | rises from about 1 at 0 min (fit) and about 2.5 at 15 min to a plateau of about 7.5 µmole h-1 mg-1 by 200-270 min | rises from about 18.3 at about 2 min to a plateau of about 22.2-22.4 µmole h-1 mg-1 from 30-45 min up to 150 min |  |  |  |  |  |  | 
2 | B2 |  |  | K(0.5) of 0.064 µM PBGS | more than doubles the K(0.5) to 0.134 µM pea PBGS | half maximal activity at 3.5 µg/ml PBGS | half maximal activity at 13.5 µg/ml PBGS | rises from near 10 at about 0.008 µM to about 250 at about 0.8 µM; fitted line levels at about 275 µmol h-1 mg-1 toward 10 µM (log axis); the half-maximal K(0.5) is printed in the text | curve shifted to the right of the DMSO curve: near 0 at about 0.008 µM, about 240 at about 0.8 µM; fitted line reaches about 290 µmol h-1 mg-1 at 10 µM (log axis); the half-maximal K(0.5) is printed in the text | rises from about 5 at 0.001 µM to a plateau of about 220 at 0.7-1 µM on a log axis
